The target in assay [1] is T1, mouse Mcl-1 lacking its hydrophobic C-terminus (yeast 2-hybrid bait in pGBT-9) (mouse, UniProt P97287 1-307).
T1 construct: not shown: GAL4 domain of pGBT-9
Put plainly: yeast 2-hybrid screen.

The target in assay [2] is mouse dynein light chain 2 (DLC2) (mouse, UniProt Q9D0M5 1-89). Put plainly: yeast 2-hybrid.

Where a chain is given by its changes, count along the chain named. Names and notes keep the numbering of the source.

Chain of mouse dynein light chain 2 (DLC2) (Q9D0M5 whole entry): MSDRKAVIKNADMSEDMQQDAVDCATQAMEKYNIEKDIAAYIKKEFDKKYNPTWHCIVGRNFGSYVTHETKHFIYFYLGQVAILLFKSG
T1 sequence (P97287 1-307): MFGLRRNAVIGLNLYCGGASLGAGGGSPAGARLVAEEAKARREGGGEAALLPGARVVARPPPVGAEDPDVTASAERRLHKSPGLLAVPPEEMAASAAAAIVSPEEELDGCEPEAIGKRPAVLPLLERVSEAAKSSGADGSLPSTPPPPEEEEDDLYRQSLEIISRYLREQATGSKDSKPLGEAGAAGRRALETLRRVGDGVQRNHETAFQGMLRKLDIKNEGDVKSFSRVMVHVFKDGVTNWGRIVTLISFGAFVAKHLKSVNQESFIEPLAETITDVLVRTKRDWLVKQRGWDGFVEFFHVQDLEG

B1: Bmf (Bcl-2 modifying factor), mouse, wild-type, as used in the yeast 2-hybrid system (other)
chain: MEPPQCVEELEDDVFQSEDGEPGTQPGGLLSADLFAQSQLDCPLSRLQLFPLTHCCGPGLRPISQEDKATQTLSPASPSQGVMLPCGVTEEPQRLFYGNAGYRLPLPASFPAGSPLGEQPPEGQFLQHRAEVQIARKLQCIADQFHRLHTQQHQQNRDRAWWQVFLFLQNLALNRQENREGVGPW
notes: The clone first isolated with Mcl-1 as bait was a partial one lacking the 5' end; Mouse bmf was later subcloned as bait; also called the novel protein; not shown: GAL4 domain of the yeast 2-hybrid vector (pAD-GAL4-2.1 for the library clone, a pGBT-9 derivative for Bmf as bait); limi
In the case of B1, in assay [1], the binding result was “binds”.

B2: Bmf A69P mutant as tested in yeast (other)
chain: B1 chain with A69P
notes: Yeast construct of the mutant is not described further; not shown: GAL4 domain of the yeast 2-hybrid vector
As for B2, in assay [2], the binding result is recorded as “no binding”.

B3: Bmf AAA mutant (D67K68A69:>AAA) as tested in yeast (other)
chain: B1 chain with D67A, K68A
notes: Yeast construct of the mutant is not described further; also called AAA mutation; not shown: GAL4 domain of the yeast 2-hybrid vector
Turning to B3, the binding result in assay [2] is on record as “no binding”.

Values taken from patent publication US20050064593A1 (WALTER AND ELIZA HALL INSTITUTE OF MEDICAL RESEARCH, published 2005).
